Results as given in PMC5691159 (Nature Communications, 2017).

Key:
[1] = target: PfRh5 (Plasmodium falciparum) (UniProt Q8IFM5); details: cited from earlier work
[2] = target: recombinant Cyclophilin B (Sino Biological) (human); assay: SPR; Biacore T200, 25 °C; CypB (200 RU) amine-coupled on CM5 chip; analyte injected at 30 µl/min; running buffer 50 mM HEPES, 150 mM NaCl, 5 mM MgCl2, pH 7.4; 1:1 (Langmuir) model
[3] = target: PfRhopH3 on the P. falciparum merozoite surface (P. falciparum (endogenous in merozoites)) (UniProt Q8I395); assay: immunostaining of cells or tissue; free merozoites incubated with 25 µM Cyclophilin B for 2 h at RT, with or without pre-incubation with rabbit anti-PfRhopH3 or anti-Rap2b antibody (1:25, 15 min); bound CypB stained and its fluorescence intensity measured by confocal microscopy (mean of ten merozoites)
Sequence of PfRhopH3 on the P. falciparum merozoite surface (P. falciparum (endogenous in merozoites)) (Q8I395 25-897): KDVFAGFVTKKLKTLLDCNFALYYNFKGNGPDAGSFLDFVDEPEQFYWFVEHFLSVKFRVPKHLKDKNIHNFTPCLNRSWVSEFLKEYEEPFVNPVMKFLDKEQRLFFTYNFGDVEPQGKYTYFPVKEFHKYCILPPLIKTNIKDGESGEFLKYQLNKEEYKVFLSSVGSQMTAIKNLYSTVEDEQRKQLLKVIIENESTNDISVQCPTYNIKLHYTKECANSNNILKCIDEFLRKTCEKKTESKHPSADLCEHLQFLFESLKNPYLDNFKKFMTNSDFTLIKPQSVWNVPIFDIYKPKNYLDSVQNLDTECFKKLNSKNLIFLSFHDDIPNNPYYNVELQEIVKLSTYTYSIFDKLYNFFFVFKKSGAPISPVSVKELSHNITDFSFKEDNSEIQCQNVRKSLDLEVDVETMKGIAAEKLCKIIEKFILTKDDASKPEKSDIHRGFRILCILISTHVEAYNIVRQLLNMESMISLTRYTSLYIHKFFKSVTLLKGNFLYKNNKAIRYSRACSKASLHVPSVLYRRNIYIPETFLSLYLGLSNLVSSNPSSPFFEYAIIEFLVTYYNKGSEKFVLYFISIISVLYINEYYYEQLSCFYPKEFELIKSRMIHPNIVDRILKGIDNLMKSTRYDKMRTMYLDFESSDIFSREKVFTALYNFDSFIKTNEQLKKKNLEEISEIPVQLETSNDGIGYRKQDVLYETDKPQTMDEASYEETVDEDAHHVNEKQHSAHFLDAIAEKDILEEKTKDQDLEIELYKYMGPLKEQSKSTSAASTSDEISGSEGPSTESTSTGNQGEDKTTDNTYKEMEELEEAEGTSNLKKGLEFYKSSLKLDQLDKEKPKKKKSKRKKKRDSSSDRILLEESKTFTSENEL

[4] = target: recombinant Cyclophilin B (Sino Biological) (human); assay: SPR; Biacore T200, 25 °C; […]; running buffer 50 mM HEPES, 150 mM NaCl, 5 mM MgCl2, pH 7.4; 1:1 (Langmuir) model
PfRh5 protein = target: T1, PfRh5 protein (P. falciparum, UniProt Q8IFM5 25-526); assay: SPR; Biacore T200, 25 °C; […]; running buffer 50 mM HEPES, 150 mM NaCl, 5 mM MgCl2, pH 7.4; 1:1 model; details: both partners purified
T1 sequence: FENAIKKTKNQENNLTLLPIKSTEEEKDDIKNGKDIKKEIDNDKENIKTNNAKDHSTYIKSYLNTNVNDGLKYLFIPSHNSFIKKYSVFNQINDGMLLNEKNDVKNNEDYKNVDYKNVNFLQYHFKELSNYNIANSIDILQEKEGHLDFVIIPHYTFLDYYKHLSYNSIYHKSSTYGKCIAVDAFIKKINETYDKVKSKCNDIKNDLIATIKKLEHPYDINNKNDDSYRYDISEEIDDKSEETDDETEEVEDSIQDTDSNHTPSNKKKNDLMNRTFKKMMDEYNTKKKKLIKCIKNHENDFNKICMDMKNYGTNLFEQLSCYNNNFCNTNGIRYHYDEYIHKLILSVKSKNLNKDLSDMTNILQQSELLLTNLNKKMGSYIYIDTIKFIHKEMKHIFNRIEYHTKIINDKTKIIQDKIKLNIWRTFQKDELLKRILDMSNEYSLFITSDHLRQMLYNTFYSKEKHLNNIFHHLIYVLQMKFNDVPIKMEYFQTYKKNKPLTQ

For Basigin (from UniProt P35613), the Kd [1] is given as 1120 nM.

For “recombinant Basigin (BSG/CD147, Sino Biological) (from UniProt P35613 138-325) (receptor)”, the Kd [2] was 430 nM.

For “recombinant Cyclophilin B (Sino Biological) (natural protein)”, the reduction of binding to merozoites after treatment with anti-RhopH3-C antibody [3] was > 50%.

B1: recombinant PfRhopH3-C protein (aa 617–865) with C-terminal hexa-Histidine tag (domain or fragment)
chain: QLSCFYPKEFELIKSRMIHPNIVDRILKGIDNLMKSTRYDKMRTMYLDFESSDIFSREKVFTALYNFDSFIKTNEQLKKKNLEEISEIPVQLETSNDGIGYRKQDVLYETDKPQTMDEASYEETVDEDAHHVNEKQHSAHFLDAIAEKDILEEKTKDQDLEIELYKYMGPLKEQSKSTSAASTSDEISGSEGPSTESTSTGNQGEDKTTDNTYKEMEELEEAEGTSNLKKGLEFYKSSLKLDQLDKEKP
For B1, the Kd [4] was 160 nM and the Kd (PfRh5 protein) was 18 nM.
